Test results as given in patent US20250262210A1 (TRUSTEES OF COLUMBIA UNIVERSITY IN THE CITY OF NEW YORK, published 2025).

Assays:
TUBGCP2 = TUBGCP2 (human, UniProt Q9BSJ2 1-902, limits assumed); test: IP/MS, LZTR1 wild type-FLAG, U87
Method in brief: (§1)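 Gel slices were reduced with 5 mM DTT, alkylated with 11 mM IAA and digested overnight at 37° C. with trypsin. Peptides were analysed on an Orbitrap Fusion Tribrid by LC-MS/MS.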

NCAPG2 = target: T1, NCAPG2 (human, UniProt Q86XI2 1-1143, limits assumed); test: IP/MS, LZTR1 wild type-FLAG, U87
T1 sequence (looked up): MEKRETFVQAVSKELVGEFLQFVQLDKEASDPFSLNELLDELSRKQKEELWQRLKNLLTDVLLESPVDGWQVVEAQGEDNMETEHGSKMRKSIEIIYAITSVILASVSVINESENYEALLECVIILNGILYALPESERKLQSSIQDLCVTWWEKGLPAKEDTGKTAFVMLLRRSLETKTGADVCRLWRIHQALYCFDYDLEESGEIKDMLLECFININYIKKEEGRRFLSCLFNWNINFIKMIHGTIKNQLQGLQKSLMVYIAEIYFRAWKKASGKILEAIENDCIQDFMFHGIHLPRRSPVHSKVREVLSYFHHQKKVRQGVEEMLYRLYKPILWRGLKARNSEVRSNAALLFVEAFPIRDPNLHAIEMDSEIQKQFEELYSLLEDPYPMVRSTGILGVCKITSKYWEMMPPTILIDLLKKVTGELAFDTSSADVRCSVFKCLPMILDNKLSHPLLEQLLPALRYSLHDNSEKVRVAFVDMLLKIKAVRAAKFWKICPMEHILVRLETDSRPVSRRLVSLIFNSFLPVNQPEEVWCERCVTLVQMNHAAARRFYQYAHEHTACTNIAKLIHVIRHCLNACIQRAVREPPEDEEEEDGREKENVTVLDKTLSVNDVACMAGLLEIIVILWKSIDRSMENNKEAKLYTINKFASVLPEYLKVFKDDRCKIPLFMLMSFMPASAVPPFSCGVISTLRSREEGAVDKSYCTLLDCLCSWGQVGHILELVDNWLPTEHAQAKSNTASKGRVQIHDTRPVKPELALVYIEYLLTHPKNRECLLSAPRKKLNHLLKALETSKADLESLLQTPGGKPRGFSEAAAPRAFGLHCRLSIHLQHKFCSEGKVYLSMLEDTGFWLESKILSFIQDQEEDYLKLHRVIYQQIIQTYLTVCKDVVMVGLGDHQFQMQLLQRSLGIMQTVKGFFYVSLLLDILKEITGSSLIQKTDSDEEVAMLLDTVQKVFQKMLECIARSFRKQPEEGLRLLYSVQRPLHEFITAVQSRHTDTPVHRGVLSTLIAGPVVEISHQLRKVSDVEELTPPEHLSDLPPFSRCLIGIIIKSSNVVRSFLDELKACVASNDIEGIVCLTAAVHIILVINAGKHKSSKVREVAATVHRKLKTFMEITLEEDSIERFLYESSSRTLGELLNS
Method in brief: as §1

Chain of TUBGCP2 (Q9BSJ2 whole entry, the tested form may be a part): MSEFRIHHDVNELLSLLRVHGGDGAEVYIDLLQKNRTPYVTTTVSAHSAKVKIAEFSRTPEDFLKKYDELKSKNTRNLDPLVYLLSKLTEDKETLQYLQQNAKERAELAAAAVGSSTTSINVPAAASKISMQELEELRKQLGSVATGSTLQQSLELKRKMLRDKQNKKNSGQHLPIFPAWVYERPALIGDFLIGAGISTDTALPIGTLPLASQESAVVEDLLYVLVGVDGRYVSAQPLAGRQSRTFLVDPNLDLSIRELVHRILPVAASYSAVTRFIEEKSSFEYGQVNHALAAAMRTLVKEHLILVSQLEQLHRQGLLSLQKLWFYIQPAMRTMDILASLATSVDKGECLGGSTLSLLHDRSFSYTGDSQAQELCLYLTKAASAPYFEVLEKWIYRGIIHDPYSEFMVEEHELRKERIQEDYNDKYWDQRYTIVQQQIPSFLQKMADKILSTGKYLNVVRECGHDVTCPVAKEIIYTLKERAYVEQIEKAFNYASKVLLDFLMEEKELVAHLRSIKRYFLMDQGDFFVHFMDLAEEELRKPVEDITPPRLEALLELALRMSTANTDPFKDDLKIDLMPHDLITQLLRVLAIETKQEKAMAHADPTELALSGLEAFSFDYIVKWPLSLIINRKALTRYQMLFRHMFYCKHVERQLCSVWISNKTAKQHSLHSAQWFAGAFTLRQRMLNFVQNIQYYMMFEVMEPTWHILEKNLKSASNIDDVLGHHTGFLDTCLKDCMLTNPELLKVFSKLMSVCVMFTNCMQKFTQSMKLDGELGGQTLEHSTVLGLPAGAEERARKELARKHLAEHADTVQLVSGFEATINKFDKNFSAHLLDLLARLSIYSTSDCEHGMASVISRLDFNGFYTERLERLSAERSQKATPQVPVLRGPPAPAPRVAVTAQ

B1: LZTR1-FLAG (other, human, UniProt Q8N653 1-840, looked up)
chain: MAGPGSTGGQIGAAALAGGARSKVAPSVDFDHSCSDSVEYLTLNFGPFETVHRWRRLPPCDEFVGARRSKHTVVAYKDAIYVFGGDNGKTMLNDLLRFDVKDCSWCRAFTTGTPPAPRYHHSAVVYGSSMFVFGGYTGDIYSNSNLKNKNDLFEYKFATGQWTEWKIEGRLPVARSAHGATVYSDKLWIFAGYDGNARLNDMWTIGLQDRELTCWEEVAQSGEIPPSCCNFPVAVCRDKMFVFSGQSGAKITNNLFQFEFKDKTWTRIPTEHLLRGSPPPPQRRYGHTMVAFDRHLYVFGGAADNTLPNELHCYDVDFQTWEVVQPSSDSEVGGAEVPERACASEEVPTLTYEERVGFKKSRDVFGLDFGTTSAKQPTQPASELPSGRLFHAAAVISDAMYIFGGTVDNNIRSGEMYRFQFSCYPKCTLHEDYGRLWESRQFCDVEFVLGEKEECVQGHVAIVTARSRWLRRKITQARERLAQKLEQEAAPVPREAPGVAAGGARPPLLHVAIREAEARPFEVLMQFLYTDKIKYPRKGHVEDVLLIMDVYKLALSFQLCRLEQLCRQYIEASVDLQNVLVVCESAARLQLSQLKEHCLNFVVKESHFNQVIMMKEFERLSSPLIVEIVRRKQQPPPRTPLDQPVDIGTSLIQDMKAYLEGAGAEFCDITLLLDGHPRPAHKAILAARSSYFEAMFRSFMPEDGQVNISIGEMVPSRQAFESMLRYIYYGEVNMPPEDSLYLFAAPYYYGFYNNRLQAYCKQNLEMNVTVQNVLQILEAADKTQALDMKRHCLHIIVHQFTKVSKLPTLRSLSQQLLLDIIDSLASHISDKQCAELGADI
notes: Expressed in HEK 293T, HeLa or U87 cells; used as cell lysate; also called LZTR1 wild type-FLAG; LZTR1 WT; not shown: FLAG tag at the C-terminus
binding result (TUBGCP2): binds | binding result (NCAPG2): binds
